Experimental data as given in patent US20220332803A1 (SIEMENS HEALTHCARE DIAGNOSTICS, published 2022).
Square brackets hold non-standard residues; d marks the D form. Ends that are not written are not given here. Nle = CCCC[C@H](N)C(=O)O

T1: recombinant yeast-produced non-glycosylated pig TCN1 protein (Lifespan Biosciences, LS-G23154) (Sus scrofa, UniProt P17630 26-417)
T1 construct: Bought protein, Mw 46.3 kDa, non-glycosylated; also called rec Pig TCN1; recombinant Pig TCN1
T1 sequence: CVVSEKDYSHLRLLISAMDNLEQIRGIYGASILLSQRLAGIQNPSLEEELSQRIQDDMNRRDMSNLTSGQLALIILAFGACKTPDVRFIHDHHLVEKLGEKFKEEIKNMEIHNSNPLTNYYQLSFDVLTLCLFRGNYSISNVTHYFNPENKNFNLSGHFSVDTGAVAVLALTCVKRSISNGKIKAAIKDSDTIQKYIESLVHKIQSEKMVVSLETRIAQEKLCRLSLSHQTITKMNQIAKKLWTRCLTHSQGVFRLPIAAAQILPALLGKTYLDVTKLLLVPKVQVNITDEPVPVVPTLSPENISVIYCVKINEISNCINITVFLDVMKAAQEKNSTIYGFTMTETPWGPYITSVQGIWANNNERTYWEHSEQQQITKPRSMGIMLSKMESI

T2: Hog Intrinsic Factor (Sus scrofa)
T2 construct: The source of the HIF sample used in the ELISAs is not described; also called HIF; Intrinsic Factor from Sus scrofa
T2 chain: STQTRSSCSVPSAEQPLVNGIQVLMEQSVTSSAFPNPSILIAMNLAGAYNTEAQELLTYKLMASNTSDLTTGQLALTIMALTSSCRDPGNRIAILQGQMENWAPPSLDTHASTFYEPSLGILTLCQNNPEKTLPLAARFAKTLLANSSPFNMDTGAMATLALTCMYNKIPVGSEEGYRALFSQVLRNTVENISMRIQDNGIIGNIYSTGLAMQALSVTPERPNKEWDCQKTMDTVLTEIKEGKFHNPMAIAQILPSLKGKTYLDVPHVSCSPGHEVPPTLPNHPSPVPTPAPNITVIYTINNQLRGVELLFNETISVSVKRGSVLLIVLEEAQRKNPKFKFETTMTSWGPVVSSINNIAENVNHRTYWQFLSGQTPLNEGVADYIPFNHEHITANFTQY

T3: native Hog R-protein (glycosylated Hog TCN1 purified from crude powdered extract of hog gastric mucosa) (Sus scrofa, UniProt P17630 26-417, glycosylated, up to about 50% w/w carbohydrates)
T3 construct: Mw about 70-92 kDa; The native preparation used for Biacore is not described further; also called native Hog TCN1; partially purified native Hog R-protein
T3 sequence: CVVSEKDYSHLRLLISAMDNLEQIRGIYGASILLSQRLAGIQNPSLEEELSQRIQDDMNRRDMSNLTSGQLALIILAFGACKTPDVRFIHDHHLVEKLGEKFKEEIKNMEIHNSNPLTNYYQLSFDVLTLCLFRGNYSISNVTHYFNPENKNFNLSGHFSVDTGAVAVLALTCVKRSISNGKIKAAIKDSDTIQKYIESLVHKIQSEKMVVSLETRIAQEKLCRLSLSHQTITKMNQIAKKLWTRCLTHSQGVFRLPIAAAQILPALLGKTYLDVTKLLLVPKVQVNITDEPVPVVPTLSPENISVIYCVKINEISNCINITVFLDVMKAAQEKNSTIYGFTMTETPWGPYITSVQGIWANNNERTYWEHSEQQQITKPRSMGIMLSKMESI

T4: R2 peptide (Hog TCN1 Peptide 80-89) (Sus scrofa)
T4 construct: Synthetic peptide QDDXNRRDXS, X = norleucine; also called synthetic R2 peptide
T4 peptide: QDD[Nle]NRRD[Nle]S


Tests used:
[1] = target: T1, recombinant yeast-produced …; test: SPR (Biacore T200), mAb immobilised on CM5 chip, antigen injected at 25-1600 nM, 1:1 fit
Procedure: (§1) The binding parameters of the interaction between the anti-Hog TCN1 monoclonal antibodies and the TCN1 protein were determined in kinetics experiments using Biacore T200 equipped with Biacore T200 Control Software Version 2.0.1 (GE Healthcare Bio-Sciences, Pittsburgh, Pa.). Anti-Hog TCN1 mAbs were immobilized at 700-5,000 RU density on the carboxymethyl dextran surface in flow cells 2, 3, and 4 of the CM5 sensor chip using amino-coupling chemistry. Control antibody was immobilized in flow cell 1 for bulk effects subtraction. Recombinant Pig TCN1 (LifeSpan BioSciences, LS-G23154, Seattle, Wash.) or native Hog R-protein were injected over the surfaces with immobilized mAbs during 8 minutes at a 30 μL/min flow rate followed by 20 minutes of dissociation. The buffer blanks were run in triplicate by injection of running buffer (10 mM HEPES, 150 mM NaCl, 0.05% P-20, pH 7.4) and used to double-reference the mAb-binding data before fitting. After each cycle of binding, the surface was regenerated by two consecutive injections of 10 mM Glycine, pH 2.0 and 0.1 M Sodium Bicarbonate, pH 8.5 for 30 seconds each at a 30 μL/min flow rate. Kinetic data were collected over 25-1600 nM antigen concentrations and globally fitted to a simple 1:1 interaction model. Biacore T200 Evaluation Software Version 3.0 (GE Healthcare Bio-Sciences) was used to determine the binding parameters of the Hog TCN1 specific mAbs interaction. Kinetic parameters of the binding of the anti-Hog TCN1 monoclonal antibodies with rec Pig TCN1 and native Hog R-protein are presented in Table 5.

Hog Intrinsic Factor [2] = target: T2, Hog Intrinsic Factor; test: ELISA, single point, hybridoma supernatant on plate coated with Hog Intrinsic Factor, OD 650 nm
Procedure: One week after the last injection, the mice were bled, and the serum samples were tested for peptide-specific antibodies in an ELISA assay with corresponding ovalbumin conjugates and free peptides. All ELISA steps were performed at room temperature. Nunc Maxi-Sorp™ flat-bottom ELISA plates were coated with peptide or peptide-OVA conjugate at 2 and 1 μg/mL in PBS, respectively, at 50 μl per well for 1 hour. The plates were flicked dry, and the remaining binding sites were blocked by adding 200 μl per well of blocking solution (0.5% Casein in PBS containing 0.05% Tween 20) for 1 hour. Plates were washed three times with Milli-Q water containing 0.05% Tween 20, and antibody samples to be tested (serum, hybridoma supernatant, or mAb dilutions in PBS) were placed in the wells of the plates at volume 50 μl per well. After incubation for one hour, the plates were washed again as described above, and goat anti-mouse IgG-HRP conjugate diluted 1:3,000 in blocking solution was added at 50 μl per well for 1 hour. The plates were washed, and TMB substrate (Moss, Pasadena, Md.) was added at 100 μl per well for 15 minutes. Optical density of the samples at 650 nm was measured using an ELISA plate reader.
Mice received prefusion boosts on three consecutive days with the same immunogen (10 μg/dose/animal in PBS, IP), and on the fourth day, mouse spleens were harvested and frozen. Several years later, when recombinant Pig TCN1 protein became commercially available, thawed immune splenocytes were used for hybridoma preparation according to the standard procedure described above in Example 1. Hybridoma supernatants were screened for binding both rec Pig TCN1 (LifeSpan BioSciences, LS-G23154, Seattle, Wash.) and partially purified native Hog-R-protein adsorbed on ELISA plates at 1 μg/mL in 50 μl volume per well. Several hybridomas giving positive signals on both antigens were selected. […] No cross-reactivity of the monoclonal antibodies with Hog Intrinsic Factor was observed. The hybridomas were sub-cloned by limiting dilution, expanded, and frozen.

[3] = target: T3, native Hog R-protein (glycosylated Hog …); test: SPR (Biacore T200), mAb immobilised on CM5 chip, antigen injected at 25-1600 nM, 1:1 fit
Procedure: as §1

Hog Intrinsic Factor [4] = target: T2, Hog Intrinsic Factor; test: ELISA, antigen titrated on the plate, mAb at 1 µg/mL, goat anti-mouse IgG-HRP, OD 650 nm
Procedure: (§2) Purified mAbs were tested in an ELISA assay for binding to corresponding peptide, partially purified native Hog-R-protein, and recombinant Pig TCN1 (Lifespan BioSciences, LS-G23154, Seattle, Wash.), and Hog Intrinsic Factor. For this purpose, 2-fold dilution of the antigens starting from 8 μg/mL in PBS were placed in the wells of ELISA plates at 50 μl per well for 1 hour at room temperature. The plates were flicked dry, blocked with 200 μl per well of blocking solution, and washed three times as described above. Monoclonal antibodies to Hog TCN1 peptides at 1 μg/mL in PBS were added at 50 μl per well. After 1-hour incubation, the plates were washed again, and goat anti-mouse IgG-HRP conjugate diluted 1:3,000 in blocking solution was added at 50 μl per well for 1 hour. The plates were washed, and TMB substrate (Moss, Pasadena, Md.) was added at 100 μl per well for 15 minutes. Plates were read at 650 nm using an ELISA plate reader.

[5] = target: T4, R2 peptide (Hog TCN1 Peptide 80-89); test: ELISA, antigen titrated on the plate (2-fold from 8 µg/mL), mAb at 1 µg/mL, goat anti-mouse IgG-HRP, OD 650 nm
Procedure: as §2

[6] = target: T1, recombinant yeast-produced …; test: SPR (Biacore T200); reference is the same mAb on native Hog R-protein
Procedure: as §1, with “Biacore T200 Evaluation Software Version 3.0 (GE Healthcare Bio-Sciences) was used to determine the binding parameters of the Hog TCN1 specific mAbs interaction. Kinetic parameters of the binding of the anti-Hog TCN1 monoclonal antibodies with rec Pig TCN1 and native Hog R-protein are presented in Table 5.” left out

[7] = target: T3, native Hog R-protein (glycosylated Hog …); test: SPR (Biacore T200), mAb immobilised on CM5 chip, antigen injected at 25-1600 nM, 1:1 fit; native Hog R-protein (heavily glycosylated)
Procedure: as §1, with “Biacore T200 Evaluation Software Version 3.0 (GE Healthcare Bio-Sciences) was used to determine the binding parameters of the Hog TCN1 specific mAbs interaction. Kinetic parameters of the binding of the anti-Hog TCN1 monoclonal antibodies with rec Pig TCN1 and native Hog R-protein are presented in Table 5.” left out

[8] = target: T1, recombinant yeast-produced …; test: SPR (Biacore T200), mAb immobilised on CM5 chip, antigen injected at 25-1600 nM, 1:1 fit; rec TCN1 protein (non-glycosylated, yeast-produced)
Procedure: as §1, with “Biacore T200 Evaluation Software Version 3.0 (GE Healthcare Bio-Sciences) was used to determine the binding parameters of the Hog TCN1 specific mAbs interaction. Kinetic parameters of the binding of the anti-Hog TCN1 monoclonal antibodies with rec Pig TCN1 and native Hog R-protein are presented in Table 5.” left out

Binder	Kd [1] [nM]	koff [1] [s⁻¹]	kon [1] [M⁻¹ s⁻¹]	binding result (Hog Intrinsic Factor [2])	Kd [3] [nM]	koff [3] [s⁻¹]	kon [3] [M⁻¹ s⁻¹]	binding result (Hog Intrinsic Factor [4])	binding result [5]	fold higher affinity than to native Hog R-protein [6] [fold]	Kd [7] [nM]	kon [8] [M⁻¹ s⁻¹]
171J 3A6 monoclonal antibody (antibody, mouse IgG2b, V domains shown, Mouse IgG2b, kappa, from a hybridoma (immunogen partially purified native Hog R-protein)) VH: QVQLQQPGAELVRPGALVKLSCKASGYTFTRYWIQWVKQRPGQGLEWIGNISPNSGSVNYSEKFKGKATLTVDKPSSTAYMQLNSLTSEDSAAYYCVRSGGDYFDYWGQGTTLTVSS VL: DVLMTQTPLSLPVSLGVQASISCRSSQSILHANGNTYLEWYLQKPGQSPKLLIYKVSNRFSGVPDRFSGSGSGTDFTLYISRVEAEDLGVYYCFQGSHLPWTFGGGTKLEIK	2.6	6.81e-05	26000	no binding								
171B 1G5 monoclonal antibody (antibody, V domains shown) VH: EVQLQESGPSLVKPSQTLSLTCSVTGDSITSDYWNWIRKFPGNKLEYMGYISYSGNTYYIPSLKSRISITRDTSKNQYYLQLNSVTSEDTATYYCARYDYDVYFSLDYWGQGTSVTVSS VL: DVVMTQTPLSLPVSLGDQASISCRSSQSLVHSNRNTYLHWYLQRPGQSPKLLVYKVSNRFSGVPDRFSGSGSGTDFTLKISRVEAEDLGVYFCSQSTHVPLTFGAGTKLELKR	72.3	0.0047	65000					no binding	binds			

The next lines start with the values.

Kd [1] [nM]	koff [1] [s⁻¹]	kon [1] [M⁻¹ s⁻¹]	binding result (Hog Intrinsic Factor [2])	Kd [3] [nM]	koff [3] [s⁻¹]	kon [3] [M⁻¹ s⁻¹]	binding result (Hog Intrinsic Factor [4])	binding result [5]	fold higher affinity than to native Hog R-protein [6] [fold]	Kd [7] [nM]	kon [8] [M⁻¹ s⁻¹]	Binder
			no binding	0.17	1.9e-05	115000						171J 5H12 monoclonal antibody (antibody, mouse IgG1, V domains shown, Mouse IgG1, kappa, from a hybridoma (immunogen partially purified native Hog R-protein)) VH: QVQLQQSGAELVKPGASVKISCKASGYAFSSSWMNWVKQRPGKGLEWIGQIYPGDGDTNYNGKFKDKATLTADKSSNTAYMQLSSLTSEDSAVYFCARVNWDAFSYIDVWGTGTTVTVSS VL: DIKMTQSPSSMYESLGERVTITCRASQDINVYLSWFQQKPGESPKTLIYRADRLVDGVPSRFSGSGSGQDYSLTISSLEYEDVGIYYCLQYDEFPYTFGGGTKLEIK
			no binding		0.00069	4830			> 500	143	50600	171J 9G7 monoclonal antibody (antibody, mouse IgG1, V domains shown, Mouse IgG1, kappa, from a hybridoma (immunogen partially purified native Hog R-protein)) VH: EVQLQQSGAELVKPGASVKLSCTGSGFNIEDIYIHWVKQRPEQGLEWIGRMDPANGDTVYASKFQGKATMTADTSSNTAYMQLSSLTSGDTAVYYCARVFDYWGQGTSLTVSS VL: DVVMTQTPLSLPVSLGDQASISCRSSQNLVHSNGYTYLHWYLQKPGQSPKLLIYKVSNRFSGVPDRFSGSGSGTDFTLKISRVEAEDLGVYFCSQNTHVPYTFGGGTKLEIK
2.3	0.000165	71500	no binding									171J 3F1 monoclonal antibody (antibody, mouse IgG1, V domains shown, Mouse IgG1, kappa, from a hybridoma (immunogen partially purified native Hog R-protein)) VH: EVQLQQSGPELLKPGVSVMISCRASGYTFTDYTMHWVKQSHGESLEWIGGIIPKSGTSNYNEKFKDKATLTVDKSSSTSYMELRSLTSEDSAVYYCARNYYDGGSYYFDYWGQGTTLTVSS VL: DIQMTQSPASLSASVGETVTITCRTSGNIHNFLTWFQQKQGKSPQLLVYSAETLADGVPSRFSGSGSGTQFSLRINSLQPEDFGSYFCQHFWNTPFTFGSGTKLEMK
